Source: patent US20160264684A1, “GLYCAN-INTERACTING COMPOUNDS AND METHODS OF USE” (SIAMAB THERAPEUTICS, INC., priority 2013, published 2016)
Where “and” joins values, the source holds several entries; their conditions need not be identical. Equal entries are not always repeated.

What was measured:
[1] = test system: STn on bovine submaxillary mucin (BSM); experiment: Anti-STn BSM ELISA; format: binding
Method: Anti-STn serum titer is determined using a murine anti-STn bovine submaxillary mucin (BSM) ELISA together with serum profiles observed by glycan microarray. 96-well plates are coated with 1 μg/well of BSM and incubated overnight at 4° C. O-acetylation of BSM antigen is removed by treating wells with 0.1 M sodium hydroxide. Specific binding to STn is determined by treatment of wells with sodium periodate. Periodate treatment destroys the C6 side chain of sialic acid; therefore antibodies raised against STn should not bind to periodate-treated wells. Wells are blocked with PBS 1% ovalbumin (OVA). Serum samples to be assayed are serially diluted in PBS 1% OVA. A commercially available mouse anti-STn monoclonal antibody, 3F1 (SBH Sciences, Natick, Mass.) is used as a positive control. This antibody is also serially diluted in PBS with 1% OVA. A pool of serum from naïve wild type mice is used for the preparation of negative control samples. Detection of anti-STn antibodies present in serum is determined using an HRP-conjugated polyclonal goat anti-mouse IgG antibody (Jackson Immunoresearch, West Grove, Pa.). The reaction is stopped by addition of sulfuric acid (1.6 M). Optical densities are measured at 490 nm using a Spectramax microplate reader (Molecular Devices, Sunnyvale, Calif.). The serum titer is obtained by comparison of OD values with a cutoff value calculated as two standard deviations above the mean of optical density values of the negative control. […]
Binding affinities of 18D2 and 18C7 to STn were compared to commercially available anti-STn antibodies using the BSM ELISA assay described in Example 2. […] Antibody binding was determined using HRP-conjugated polyclonal goat anti-mouse IgG antibody (Jackson Immunoresearch Laboratories, West Grove, Pa.). […] Optical densities were measured at 490 nm using a Spectramax microplate reader. […] The half maximal effective concentration (EC50) for each antibody was calculated using a non-linear regression analysis carried out on periodate subtracted data.

[2] = test system: ST6GalNAc 1 transfected MDA-MB-231 cells; experiment: Flow cytometry-based analysis of antibody binding, STn+ cells; format: cell-based, human
Method: Flow cytometry-based analysis is carried out to elucidate the curve-dose response for binding of antibodies to cell surface antigens. For these analyses, three cell lines are employed.
MDA-MB-231 cells are human breast cancer cells. They are grown in Earle's Minimum Essential Medium supplemented with 10% fetal calf serum (FCS), 100 μg/ml penicillin, 100 UI/ml streptomycin and 45 μg/ml gentamycin. MCF-7 cells are also human breast cancer cells and are grown under the same conditions as MDA-MB-231 cells. Stably transfected versions of MDA-MB-231 and MCF-7 cells (clone TAH3.P10 for MDA-MB-231 cells and clone A12.1 for MCF-7 cells) that over express GalNAc α2,6-sialyltransferase (ST6GalNAc 1,) are also cultured under the same conditions with the exception of an added 1 mg/ml of G418 to support cells expressing the transgene. ST6GalNAc 1 is an enzyme capable of sialylating GalNAc. […]
For analysis, cells are harvested using StemPro Accutase (Life Technologies, Carlsbad, Calif.) and washed with PBS comprising 5% FBS before pelleting by light centrifugation. Cell numbers and viability are determined by trypan blue dye exclusion analysis and cell concentrations are adjusted to 5×10^6 cells/ml in PBS with 5% FBS. […] Cells are combined with 50 μl solutions of antibody being analyzed or control antibodies and incubated for 1 hour at 4° C. […]

[3] = Glycan microarray analysis, 9-O-acetylated GcSTn; format: binding
Method: (§1) Optimized glycan arrays comprise 71 chemically synthesized and well-defined glycans, most of which comprise Neu5Ac and Neu5Gc glycan pairs.
(§2) 300 ml of epoxy blocking buffer is prepared by combining 15 ml of 2 M Tris buffer (pH 8) with 0.9 ml of 16.6 M ethanolamine and 284.1 ml of distilled water. The solution is filtered using a 0.2 μM nitrocellulose membrane. The epoxy buffer solution as well as 1 L of distilled water are pre-warmed to 50° C. Glass slides are arranged in a slide holder and quickly submerged in a staining tub with the warmed epoxy blocking buffer. Slides are incubated in the epoxy blocking buffer for 1 hour at 50° C. with periodic shaking to deactivate epoxy binding sites. Next, slides are rinsed and blocked with PBS with 1% OVA at 25° C. for one hour. Serum samples are diluted 1:1000 in PBS with 1% OVA and added to the glycan array for one hour at 25° C. After extensive washing, binding of polyclonal serum antibodies are detected by incubating glycan microarray slides with Cy3-conjugated anti-mouse IgG (Jackson Immunoresearch, West Grove, Pa.) for one hour. […]
(§3) 18D2 and 18C7 clones were expanded and binding properties of these hybridomas were determined by glycan microarray analysis according to Example 4. […] No binding to Tn antigen or other glycans was detected.

[4] = Glycan microarray analysis, AcSTn; format: binding
Method: as §1, §2, §3

[5] = Glycan microarray analysis, Tn antigen or other glycans; format: binding
Method: as §1, §2, §3

[6] = Glycan microarray analysis, GcSTn; format: binding
Method: as §1, §2, §3

binding to periodate-treated wells ([1]; BSM ELISA, sodium periodate treated wells): did not bind
EC50 ([1]; non-linear regression on periodate subtracted data, 7-point 1:5 dilution from 100 nM): 6.3 nM
EC50, flow cytometry binding to cell-associated STn ([2]; ST6GalNAc 1 transfected MDA-MB-231 cells (STn expressed on MDA cells)): 44.08 nM and 74.51 nM
EC50 ([2]; no unit printed (same values in nM in b551, b556)): 65.8 nM
binding to Tn antigen or other glycans [5]: No binding
B1: 18D2: anti-STn monoclonal antibody from mouse #4436; IgG2b κ; heavy chain SEQ ID NO 1, light chains SEQ ID NO 2 and 3 (antibody, V domains shown)
VH: QVTLKESGPGILQPSQTLSLTCSFSGFSLSTSNMGIGWIRQPSGKGLEWLAHIWWHDDKYYNPSLKSRLTISKDISNNQVFLKITSVDTADTATYYCAQVPFYYGTSFDVWGTGTTVTVSS
VL 1: DIVMTQSPATLSVTPGDRVSLSCRASQSISDYLHWYQQKSHESPRLLIKYASQSISGIPSRFSGSGSGSDFTLSINSVEPEDVGVYYCQNGHSFPLTFGAGTKLELK
VL 2: QIVLTQSPAIMSASPGETVTMTCSASSSITYMHWYQQKPGTSPKRWIYDTSKLASGVPARFSGSGSGTSYSLTISSMEAEDAATYYCHQRSSYTFGGGTKLEIKR
mean fluorescence intensity, Neu5,9Ac5Gc-α2,6-GalNAc [3]: about 4,000
Glycan Array AcSTn [4]: 50%
mean fluorescence intensity, AcSTn ([4]; glycan microarray): about 16,000
Glycan Array GcSTn [6]: 50%
mean fluorescence intensity, GcSTn ([6]; glycan microarray): about 7,000
